In patent publication US11572568B2, “Regulating alkaloids” (22nd Century Limited, LLC, priority 2006, dated 2023):

Legend:
Recombinant tobacco MPO1 = molecular target: T1, Recombinant tobacco MPO1 (Nicotiana tabacum, UniProt A0A1S4BDC4); settings: for V/K: substrate of recombinant tobacco MPO1
T1 sequence (A0A1S4BDC4 1-790): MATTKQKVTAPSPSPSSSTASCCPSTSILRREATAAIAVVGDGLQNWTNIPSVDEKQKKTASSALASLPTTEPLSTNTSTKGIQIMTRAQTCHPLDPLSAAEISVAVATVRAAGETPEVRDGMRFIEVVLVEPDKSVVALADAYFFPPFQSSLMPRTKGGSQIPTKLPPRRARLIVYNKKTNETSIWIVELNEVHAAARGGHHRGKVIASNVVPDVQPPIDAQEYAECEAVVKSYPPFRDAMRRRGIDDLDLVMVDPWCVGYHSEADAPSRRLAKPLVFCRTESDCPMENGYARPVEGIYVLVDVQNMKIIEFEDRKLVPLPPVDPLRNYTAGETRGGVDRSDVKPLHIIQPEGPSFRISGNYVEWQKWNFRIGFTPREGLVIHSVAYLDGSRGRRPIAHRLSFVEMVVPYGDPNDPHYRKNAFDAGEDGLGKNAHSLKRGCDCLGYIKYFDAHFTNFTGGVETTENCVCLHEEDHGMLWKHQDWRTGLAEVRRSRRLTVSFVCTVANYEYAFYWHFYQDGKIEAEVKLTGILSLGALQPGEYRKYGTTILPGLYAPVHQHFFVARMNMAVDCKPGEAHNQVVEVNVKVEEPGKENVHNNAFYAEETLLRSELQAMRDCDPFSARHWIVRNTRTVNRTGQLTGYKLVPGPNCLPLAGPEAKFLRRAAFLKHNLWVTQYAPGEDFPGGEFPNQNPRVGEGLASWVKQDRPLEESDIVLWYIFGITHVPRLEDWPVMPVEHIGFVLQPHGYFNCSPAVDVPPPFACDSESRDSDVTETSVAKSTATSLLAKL
Description: The PCR product was first cloned into a pGEM-T Easy vector (Promega), then excised as the EcoRV-Not1 fragment, and finally cloned into the expression vector pGEX-6P (GE Healthcare). The resultant plasmid pGEX-MPO1 was introduced into the E. coli strain Rosetta (DE3) (Novagen). The recombinant bacteria were cultured in LB medium containing 50 μg/ml carbenicillin at 37° C. until the OD600 of the culture reached 0.4, IPTG and CuSO4 were added to the culture to the final concentrations of 0.1 mM and 4 mM, respectively, and the cultures were incubated at 16° C. for 16 h. Bacteria were harvested by centrifugation, suspended in a PBS buffer containing 10 mM DTT and 1 mg/ml lysozyme, incubated at 4° C. for 2 h, and then sonicated for 3 min. After centrifugation of the homogenate, the recombinant MPO1 protein fused to GST was purified from the supernatant by GSTrap HP (GE Healthcare) according to the manufacturer's protocol.

[1] = molecular target: T2, Pig kidney diamine oxidase (Sus scrofa, UniProt Q9TRC7); settings: in words
T2 sequence (Q9TRC7 25-755): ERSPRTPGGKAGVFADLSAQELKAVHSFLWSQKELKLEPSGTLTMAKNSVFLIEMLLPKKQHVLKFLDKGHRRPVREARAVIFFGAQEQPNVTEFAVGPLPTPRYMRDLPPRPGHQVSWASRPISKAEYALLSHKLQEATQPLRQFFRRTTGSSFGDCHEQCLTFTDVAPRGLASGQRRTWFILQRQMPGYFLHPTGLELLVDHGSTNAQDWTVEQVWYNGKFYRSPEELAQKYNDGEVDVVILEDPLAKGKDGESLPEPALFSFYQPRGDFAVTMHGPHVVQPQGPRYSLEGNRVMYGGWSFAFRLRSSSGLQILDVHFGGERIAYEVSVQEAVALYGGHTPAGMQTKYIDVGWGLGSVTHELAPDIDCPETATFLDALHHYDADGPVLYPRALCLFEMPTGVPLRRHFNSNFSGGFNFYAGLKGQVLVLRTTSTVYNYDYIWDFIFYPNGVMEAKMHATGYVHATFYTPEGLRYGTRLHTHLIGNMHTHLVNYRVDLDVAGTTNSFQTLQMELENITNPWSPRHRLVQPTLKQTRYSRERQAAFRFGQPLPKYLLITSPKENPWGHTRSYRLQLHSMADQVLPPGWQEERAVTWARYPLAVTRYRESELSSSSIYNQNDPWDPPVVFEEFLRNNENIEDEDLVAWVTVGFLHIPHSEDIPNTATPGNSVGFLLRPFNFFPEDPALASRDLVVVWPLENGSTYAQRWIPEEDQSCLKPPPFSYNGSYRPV
Description: (§1) Purified diamine oxidase from pig kidney was purchased from Sigma. Enzyme activities were calculated by data analysis software, Kaleida Graph (HULINKS).

NCCCCCN = assay: purified protein, by the assay type; settings: other: substrate of recombinant tobacco MPO1 (GST fusion, purified from E. coli)
Description: as §1

NCCCN = assay: purified protein, by the assay type; settings: other: substrate of recombinant tobacco MPO1 (GST fusion, purified from E. coli)
Description: as §1

[2] = substrate: NCCCCCN; assay: purified protein, by the assay type; settings: other: substrate of purified pig kidney diamine oxidase (Sigma)
Description: as §1

[3] = substrate: CNCCCCN; assay: purified protein, by the assay type; settings: other: substrate of purified pig kidney diamine oxidase (Sigma)
Description: as §1

[4] = substrate: NCCCCN; assay: purified protein, by the assay type; settings: other: substrate of purified pig kidney diamine oxidase (Sigma)

NCCCCN [Putrescine]
V/K (Recombinant tobacco MPO1): 3600 | substrate preference [1]: preferred putrescine over N-methylputrescine

CNCCCN [N-Methyl-1,3-diaminopropane]
V/K (Recombinant tobacco MPO1): 13000

CCCCN [n-Butylamine]
Km (Recombinant tobacco MPO1; substrate of recombinant tobacco MPO1 (GST fusion, purified from E. coli)): 249 ± 180 µM

Recombinant tobacco MPO1 (Nicotiana tabacum)
Km (NCCCCCN): 362 ± 320 µM | Km (NCCCN): 158 ± 100 µM

B1: Pig kidney diamine oxidase (Sus scrofa) (protein)
chain: T2 sequence (Q9TRC7 25-755)
Km [2]: 915 ± 420 µM | Km [3]: 657 ± 240 µM | Km [4]: 228 ± 90 µM
